{"source": "patent US6770448B2", "about": "“Fluorescent amyloid Aβ peptides and uses thereof” (The Regents of the University of California, priority 1997, dated 2004)", "key": {"[1]": {"experiment": "Denaturation (unfolding) of Aβ in DMSO monitored by tyrosine or AEDANS fluorescence", "type": "physicochemical", "experimental": "FIG. 3 is a graph illustrating the unfolding of Aβ measured by tyrosine fluorescence and 1,5-IAEDANS fluorescence. […] The protein concentration was 5-10 μM of Aβ.\nFor refolding experiments, samples were incubated in 100% DMSO for 1 hour at room temperature, and refolding was initiated by ten or fifty times dilution of the solvent in Tris buffered solution. The concentration of peptide ranged between 3 and 10 μM.\nAbsorption measurements were measured with a Perkin Elmer Lambda 3B UV-Vis spectrophotometer. Fluorescence spectra (excitation band pass 4 nm; emission band pass 8 nm) were measured either on an Aminco SLM 48000 or a SPEX Fluorolog F112A spectrofluorometer. Intrinsic tyrosine fluorescence was measured from 285 to 400 nm upon excitation at 275 nm. […] The lifetime measurements for FM were acquired using the 488 nm line of argon ion laser for excitation using a multiharmonic frequency-domain spectrofluorometer (Aminco 48000S)."}, "[2]": {"experiment": "Gel filtration chromatography (Superdex 75 HR 10/30), oligomeric structure", "type": "physicochemical", "conditions": "Superdex 75, Buffer A", "description": "The peptides were dissolved in DMSO for 30 minutes and then ten fold diluted in buffer A at a final protein concentration of 5-10 μM. A 200 μl aliquot was loaded onto a Superdex 75HR 10/30 column and eluted at a rate of 0.4 ml/min.\nGel filtration analysis was performed with a Pharmacia Superdex 75 HR 10/30 column using a Waters 490 multiple wavelength UV absorbance detector and Hewlett Packard 3250 fluorescence detector. Data were collected with a Waters Maxima chromatography data system. The running buffer used was 50 mM Tris, 0.1 M NaCl, pH 7.4 (Buffer A) in the presence of 10% or 2% DMSO. The column was calibrated with the following molecular weight standards: thyroglobulin, bovine serum albumin, ovalbumin, soybean trypsin inhibitor, ubiquitin, aprotinin, and insulin β-chain. The peptides were detected by UV absorbance at 280 nm and by fluorescence at 482 and 520 nm for IAEDANS and FM respectively."}}, "data": [{"substance": "AβC7FM: Aβ with cys in position 7 and labeled with FM", "values": [{"measurement": "unfolding curve compared with AβC25-AEDANS", "setting": "[1]", "result": "identical unfolding curves"}]}, {"substance": "AβC4FM: Aβ with cys in position 4 and labeled with FM", "values": [{"measurement": "unfolding curve compared with AβC25-AEDANS", "setting": "[1]", "result": "identical unfolding curves"}]}, {"substance": "14C-labeled Aβ 1-40: Aβ synthesized by incorporation of Fmoc-14C-Ala at position 2, 36 mCi/mmol", "values": [{"measurement": "elution position on gel filtration", "setting": "[2]", "result": "eluted at the position expected for a dimer"}]}]}
